Results as given in the DeepSol protein solubility set.

Assay: soluble on expression in E. coli; label from the status in PepcDB or PDB records

| Sequence | soluble on expression in E. coli |
| --- | --- |
| MAHHHHHHMNEAAPFCVAPQTWQGGLARYPVSQSHVWNNNIILQPEDIDVEVFNAMSQVESQYNKNEISVEDFEMLQLTFCLFTVNQSCYDLIPNGREIRVTQANAFEFFQRVHAAYDNMKQRPALNQPTQSNHRPRLRTSGTRLRLTGQDTDSLEWIRWTAQNNPAALAFHPDEPLRWAVVPRSRDFMIRVQPEGENTFVDPDHLTLFLDMLAVLLTEIERAISVFGYYPPNCVSAAPVECADEYSIYTSHTTRATRLPFPSQRVNSRGFSALHKFPMPVTAAAAAAAAAATEQNRRTVRRASSADLENQRALCSPTHDTGGLLAPFQEWNV | not soluble |
| MAHHHHHHMNIFKYYNIYLPLSVLGFVHIEVKSNNDVLNNSLSSISFNNYIFGRILSTNESADVVVEKPMEEKLNNTNENIDETHEESDPSNSTEETVKKCISNILDMTCDSRGHALILANNILRSQNVNEEVIILNEHDLLSQFLNGDVSNIFSDNKSIFKDLLDKDICSTYEVNFDQNSKCTLLTNKNDLQISEDILLLGNESEETNKLLDLWKRVMKNEESKLYLLKRNLYQQHLKLRNRSRLSHDKLNNILNECNVLVKKYNNNYDKTINNIFKEWSTVTPHNIFEFKLFIKACRLTWRKSIKNLHAEYTELLKRSFN | not soluble |
| MAHHHHHHMNRWRPFSKVRHFSGLTKLTNVREHQDEIISCIEKVKVVNPLVHCITNRVTTEKVANSLLAFGSSPAMIDNPKEVEQFAEIASCTYFNLGLHTSQVENIHVLDKMRQEKKKEEFILVIDPIAVGATQYRTNLIKDILVKCKPNVIKGNVAEIFYLDKGEFFGKGVDSNSSSSHTPNDIIASARNVALKYNCAVVVTSKADIIVSPCSKFVAQINCDLKILTKITGSGCSVGALCAAATSVIPQNPFIACTAATLIYKLAAFKAYQKETGPGTLSHQIIDNIYFYSNHPHFMNLQLVDVYAVS | soluble |
| MAHHHHHHMNSGYPGPSGITVGSPGLPPGSLGSPFPEQMTSAHSSDGMQGSNASQVPLTIHADVDQHSKSHSPTLTSGVEVLFATHQPPVAGVNAPWDEDDDWSTPGAPAQHPASVGAPAKPPLPPGNNAPPPILIAEQMNPGSPAEPHPTPVAMSPPPSSDGFIASSSRAGSPNCPPTPLEKPSAANVAKVDALMKQIASRTAAMDAATKEKEMKIVTAAQEYLKALMAKRGEEVMNAKAIHKEEQQVGAEKINEHKKSGDVWSAVGLLVDLQKPNQYSRSTEQMRTVLSALNATPAKK | soluble |
| MAHHHHHHMNSTLVHDLQQFRYVTAFTNPLPWPHVRRVSIPGLRHEAPDLPFMANLISALSDCDVSLHKIHEHNDTDILQLVQVLQACLQFSLWSQNILKEKLLEVQATHVAKGVSAQQLENLEKRYHALEGEMAALHKDRGMLSLGTANLRTSLAQMEKTIKRQERQLQQERGRNAQLVAKLEKALCARAVAAPLMSAPRLPPPRESQQRPAGNRHASAPTHRTTKATTVYDSSRLPTDNADAHRDSIASLTSDTSYGDSCLSAEVAARTHSHVPQPCDSLDPPPPPFLDWRTLVRYIIHEEQRASVWASNHASPTAARATADERGIASKEELMPAAQHPSKPAAALPAAATQRVTEAQLDSFFAGLTAGVTTEVVAYSRAVAARVEEMVRAATQQWIQETAEAQQALMAQVQAALGSLGAELAVHKQLKDATPSPALRTVAMPVATSDASDPHAQLAPFSPVLASSSVRNSAAAALPAPCQHAGNALVTLANAPPTNDSKPLSQPPQTSASPLTPSIDSSPPASFLNSFVMSGTALCHSTTGCEVLDGGSKTRTPLPDFSPDILRTPPTSEHGTAAAPLGTGSDGPRSVVSRADDADERDVDVDLLPLDSSSSDSSSGSSQRSDGTADGVAEVSHAYARVLAKPSSPPPMYPNKTPTAAAFVVQPAAPTHPSANRTLSLHFSTRSDVSEGSSYGSSQMLRETRAQLQALLEEEEAAGRAKTHR | not soluble |
| MAHHHHHHMPELSYMFSSVSEPRALGAADDGQVITSHSNSSNNNHNNFYPLYSASGSTKVSNYGGHFENNGNNIISMNNKSDVNANTCGDSGEKGNEGEKWIWVLDPLTRKLRVPLSQLVHTQATATTGTVPSLCISFLEGRCRHQWCRQAHVLPSAIPQLRHEALHAPTCCRLHDDPHDTSVLTSRFKYIRVV | not soluble |
| MAHHHHHHMPGIKIEEVISTTKRQRVAAHSHVKGLGLDADGSAKPSADGFVGQVKAREAAGIVVELTRSKKMAGRALLFAGPPGTGKTALALGIAKELGPKVPFCPMVGSEVYSAEVKKTEVLMENFRRAIGLRIKEQKEVYEGEVTELRAEETDNPLGGYGKSIAHVIVTLKSVKGSKQLKLDAAIYESLEKEKVSVGDVIYIEASTGAVKRVGRSDAYIGDHDLEADEYVPLPKGDVHKKKEIIQDVTLHDLDSANAKPNQGQDALSIVNSLMKQKKTEITEKLRHEINKVVNKYIDQGVAELVPGVLFIDEVHMLDIECFTFLNKALESTLAPVVIFATNRGSCRIRGTDIRSPHGIPTDLLDRLLIVRTTNYSIEEIVSIVDIRSQVEGVKVSDASLELLGQIGERTSLRYVVQLLTPALIIAETNGRTVIEAEDVMLVDGLFKDAKASAQLLHEHADEYVYQ | not soluble |
| MAHHHHHHMPGPGLLADGWFREENGQWPGQAMSFKVEEVLHDTPTKFQHLSIFETDPKGPWGTVMTLDGCIQLTDFDEFVYHEMLSHTPLCAHPDPVDVLIIGGGDGGVMREVLRHGTVKRCVLVDIDGDVIEASKKYFPQISSGFSDPRADVRVGDGVAFVREAASESFDVVIIDTTDPDGPAAELFGEKFYRDVLRILKPRGICCNQGESVWLNRNLIEGMADFIKNKVGFASVKYAMIYTPTYPCGSIGSLICSKVAGVDVTQPVRPVESMPFAGELKYYDSDVHKAAFVLPRFARHLNQNYS | soluble |
| MAHHHHHHMPHEDHKKYRVQREDLPAMPHFSDFNDPRFCGTTNKQKNGILAYYQWLHCIGNWGEEHSMCKKMRWYVERMMHETWLEKWEEKRALGHFDHTVLYGVKPWKEFEPLYQPVKKNRKGAYEYWLDRDFEPLYDVDAADWRERAPILHDMFVLGKKPVSE | soluble |
| MAHHHHHHMPLRACVSRTPAQARLVEVVSDYVQHLMDMQASRCAETSLDGHVVPPPNAKYPSHDFFCATHAPAISVKKYTDRLVTYMHCSPEAFVFAVAYLRRLVLSGFPMHLQSIHRLLLTAVLVALKCRDDVYYHMSFYAEVGGVTSKDLRIMEIRFLSDLIRFEGEVSLADYHVVMVDMMRVTERRMITNISGKTEMCNRCGMSAGAFTTSIPGDLGCLHCKGDAFAHSWTSECELFWGPLNSAFSLPSGEV | not soluble |
| MAHHHHHHMPQKPLFFIYFFFFQDTPDFGGVDTQTNNNNKKRGFTRDGRGKLAGGDAHSRRDRRMRLRGWGHTAFQTRLNGSRCWGSRGASSASQCVALRSASSSFSMSTSRSPFDAVYVINLNRRPDRWKFILRQLQRAGFREGEYERFTAVDGRAVDIQKAQACGLVSLLGILRLREEESRRIWGMDLNPAAVGCALSHVLLWATIAARRYHRVLVVEDDSLFPHDFQKKYDERMRHVPQDWELVYVSGLDTADQTSQLRVAEGVSRVPQMHRTTNCYVVTHHGARRLLELCLPMTYQLDTMMTMHAVSDPQSGVPHVTSPVCYTLQPPLVVQATRMGSDIQSSNGRDEQEEERARCRAAGWTTD | soluble |
| MAHHHHHHMQAQMMLGQALEHYAMMDFANLVLEQCWDICYDSQLTRPELAGGALPDVKAQKMDACARKCVARHFEVLTLLSATRELREKERMQGLPPGTLTSM | not soluble |
| MAHHHHHHMQDDKINSKDDISSSSSCEENDENKNILNPPNRTKMSKGERRARKMLVKLGLKAIPNVHKVIIKKSQKMVFAVSNVEVYKVEGTDSYVIFGDAKTDDITNSINNFIPENLPKDVDVPVEPEINFEAADKEEQKVKDLDDENVGDVSMDDVELIMSQTKCSRDMAISALRKNNNDFVQSIMELSG | soluble |
| MAHHHHHHMQLQPPKPIIKDFNVGISPLVQTRLPLVFAQGEYPPPMQDVLLVGISLKADFSAVWDWNTKHMYVACIGRYHTKSNMTVGGVNLQKTHDVTIFDKVLRSKEEAANWTLDNAKKYALENEELGSLAGAAVELMILYHPMRHYGYSPYYTVQPGKNPVMFQLPTAYEKRTEEDDKNAMCSRGYA | not soluble |
| MAHHHHHHMQMRWIVDAEERYRRSLTWKPAVGTIYDHKIVMKRGGSSHVQYRFDVDGKEYLGDRFRSGGVHKEEMVSNPALLGAGTQLVVYYNPSDPSESAIKLQTDRAAESAFLVGITISLLVAYRSVRCETILPNMFYSFLAVNRRLGGITGLREARTHSKQKMKYGKGTGAI | not soluble |
| MAHHHHHHMQQENRHLSSADLFKKFTLQNVAQIANISNKEQSQIRGELTEQYPLLADFWEDIMPKKPDIMLVRCHDQVHCVTLVSSQPEVLFFRHHNSPYIPHLKLLHKYPFILPRQQVDIGGCKYVVSGANVMCPGLTSEGGYITPGLAAGAIVAIHVEQKEHAIAVGRMLMSSEEIERVNNGPGIENIHHLGDGLWMNRVLSSSHIGAR | not soluble |
| MAHHHHHHMQRHSSHLLLLLVAVVIPVCSEDKLDFTKLRDPFDMDEINRKLQEKVADDDPVQKAMPDPMDPKFRAPLRCSACGAVIEHAVRLLRPIIERQSERAARSGGVLPADALPKEYEMVDIFENLCGEVGRLYGLEVEKDKKRPTLRFSKSFGVSRLQGAWMPSFLTSTCEGVLDVEGEEKLAAMILGVARSEAEAGRGKVISMNPDQGIVDKVREMVCTKWEESAKGCDAYGVAIDPRETDNDDGAEEAASDL | soluble |
| MAHHHHHHMQRNEVESLEGLVLLVQLRVLVAHHNAVTSLRPIAVLPALSFIDARSNKIEDVNPMEDLPCDSLKYLALLDNPCCNGDRSVDREQIMKACPKLAMLDDVPRDPSAEKVTGSEEEENSDEEDGCKRWHAVSETPTGCSKGVSSRIHLYRSLKMCEPLPVSVPSLEPIPVTSQDIDTNRVTTTTDRLCEQLRHRSSAIRRMAGHHALGQTEVSDPVWDFGNHVENDGDSEHRSNGRRRLDSPESTLSLTLPPELEQERATKARLYDDIRFALQADDRRLRQLAGVVWDDVDKVLSTRQALVGHRRHRMHTAHQQPSDAYAKSLEILKHENRVANLDKYRKQENANAPQ | not soluble |
| MAHHHHHHMQSALRSFSEAAVGLGTSQEKLAAFIAFTNQEKLRVPQLALLRELRRQLVAEEAIAERGRHHQQPDYGVSKRSSNASAAYQDSGDQNAHLSDLRKVNVLCSSKTEKSLQCSKTLSLNHQRGDSTTGAHKTRFQSPRFSSLKSVPFAQAGAANDEYDEDIRGFGARDFAPTPTPSGKLPYKPRDVCLLNSSYFANRSIRSDGSNPCGAPLPTSSPGTPSPSWRGAMTATAFAKLPAPSQQPLLAVDSSLGTVIDVDSEFSLVREAEDTAESRFAPKQDLSIVSMNSSQLELLNIAELAASSSEAALAQPPAAAVLTGIREKVADGSLSKHTVTLFHESNEKRSRGVAASTAAEVAVASVTASIAERKPAPSSQPSTQRGLCGYTNPGNFASLLVPNVLARPVSPPAERTVAPFSLRVAPASTSPSDKEKAVTLEQQEGMASTTAVTIGSTDSAGPAAASVASRLPSPPLITQAEENDGFVYYCANPSHSVIDSYAGRRKLLAVTVKL | not soluble |
